Results reported in patent publication US20170145113A1 (Genentech, published 2017).
Residue numbers refer to the chain shown, from its start. Names and notes keep the numbering of the source.

Key:
[1] = target: purified full-length murine HtrA1 (murine, UniProt Q9R118 23-480); assay: cell-based or functional assay
[2] = target: purified full-length human HtrA1 (human, UniProt Q92743 23-480); assay: cell-based or functional assay
[3] = target: T1, murine HtrA4 protease domain (murine, UniProt A2RT60 160-371, limits assumed); assay: ELISA, hybridoma clone
T1 construct: domain: PD (protease domain); also called muHtrA4-PD; murine HtrA4-PD
T1 sequence (looked up): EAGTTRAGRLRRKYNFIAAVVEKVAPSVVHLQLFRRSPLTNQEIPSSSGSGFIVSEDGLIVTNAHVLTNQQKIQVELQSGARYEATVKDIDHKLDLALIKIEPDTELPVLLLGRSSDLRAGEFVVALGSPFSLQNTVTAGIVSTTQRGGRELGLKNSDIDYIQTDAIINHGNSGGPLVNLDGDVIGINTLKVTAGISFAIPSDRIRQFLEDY

[4] = target: T2, His-tagged human HtrA1 protease domain (human, UniProt Q92743 161-367); assay: phage competition ELISA (Fab on phage, HtrA1 in solution)
T2 construct: His-tagged protease domain; also called huHtrA1-PD-His; huHtrA1-PD
Method: (§1) MAXISORP™ microliter plates were coated with human HtrA1-PD-His at 2 μg/ml in PBS for 2 h and then blocked with PBST buffer (0.5% BSA and 0.05% TWEEN®20 in PBS) for 1 h at room temperature. Phage purified from culture supernatants were incubated with serially-diluted human or murine HtrA1 in PBST buffer in a tissue-culture microtiter plate for 1 h, after which 80 μl of the mixture was transferred to human HtrA1-coated wells for 15 min to capture unbound phage. The plate was washed with PBT buffer (0.05% TWEEN®20 in PBS), and HRP-conjugated anti-M13 antibody (Amersham Pharmacia Biotech) was added (1:5000 in PBST buffer) for 40 min. The plate was washed with PBT buffer and developed by adding tetramethylbenzidine substrate (Kirkegaard and Perry Laboratories, Gaithersburg, Md.). The absorbance at 450 nm was plotted as a function of target concentration in solution to determine phage IC50.

[5] = target: T3, His-tagged recombinant murine HtrA1 protease domain (murine, UniProt Q9R118 156-367); assay: as above
T3 construct: His-tagged protease domain; also called muHtrA1-PD-His; muHtrA1-PD
Method: as §1

[6] = target: T2, His-tagged human HtrA1 protease domain; assay: SPR (BIACORE), Fab
[7] = target: T2, His-tagged human HtrA1 protease domain; assay: BIACORE SPR, single-cycle kinetics; Fab analyte over captured human HtrA1
[8] = target: T3, His-tagged recombinant murine HtrA1 …; assay: SPR (BIACORE), Fab
Text: (§2) To address W91 oxidation in HVR-L3, 2 variants (LC-W91Y and LC-W91L) were generated and produced as Fabs for BIACORE™ SPR binding analysis.
(§3) To determine the binding affinity of anti-HtrA1 Fabs by single-cycle kinetics, (SPR) measurement with a BIACORE™ T100 instrument was used. Briefly, a series S sensor chip CM5 was activated with 1-ethyl-3-(3-dimethylamino-propyl)carbodiimide hydrochloride (EDC) and N-hydroxysuccinimide (NHS) reagents according to the supplier's instructions, and streptavidin (Pierce) was coupled to achieve approximately 2500 response units (RU), followed by blocking un-reacted groups with 1 M ethanolamine.
(§4) For kinetics measurements, biotinylated human or murine HtrA1-PD-His was first injected at 10 μl/min flow rate to capture approximately 150 RU at 3 different flow cells (FC), except for FC1 (which served as a reference), and then 5-fold serial dilutions of anti-HtrA1 Fab in HBS-P buffer (0.01M HEPES pH 7.4, 0.15 M NaCl, 0.005% surfactant P20) from low (0.48 nM) to high (300 nM) were injected (flow rate: 30 μl/min) one after the other in the same cycle with no regeneration between injections. The sensorgram was recorded and subject to reference and buffer subtraction before evaluating by BIACORE™ T100 Evaluation Software (version 2.0). Association rates (kₒₙ) and dissociation rates (koff) were calculated using a simple one-to-one Langmuir binding model. The equilibrium dissociation constant (KD) was calculated as the ratio koff/kₒₙ.

[9] = target: T2, His-tagged human HtrA1 protease domain; assay: SPR (BIACORE), Fab; remark: listed apart in the source
Text: as §2, §3, §4

[10] = target: T2, His-tagged human HtrA1 protease domain; assay: BIACORE SPR analysis, Fab format
Method: (§5) To determine the binding affinity of selected Fab variants for HtrA1, SPR measurement with a BIACORE™ T200 instrument was performed. Briefly, a series S sensor chip CM5 was activated with 1-EDC and NHS reagents according to the supplier's instructions, and anti-His antibody was coupled to achieve 200-300 response units (RU), then following by blocking un-reacted groups with 1 M ethanolamine. For kinetics measurements, approximately 5 nM of huHtrA1-PD-His was first injected at 10 μl/min flow rate to capture approximately 100 RU at 2 different flow cells (FC), except for FC1 (which served as a reference). Next, 5-fold serial dilutions of Fab in HBS-P buffer (0.01M HEPES pH 7.4, 0.15M NaCl, 0.005% surfactant P20) from low (0.8 nM) to high (50 nM) were injected (flow rate: 30 μl/min). The binding responses on HtrA1 were corrected by subtracting of RU from a blank flow cell. The sensorgram was recorded and subject to reference and buffer subtraction before evaluating by BIACORE® T200 Evaluation Software (version 2.0). Association rates (kₒₙ) and dissociation rates (koff) were calculated using a simple one-to-one Langmuir binding model. The equilibrium dissociation constant (KD) was calculated as the ratio of koff/kₒₙ.

[11] = target: T2, His-tagged human HtrA1 protease domain; assay: BIACORE SPR, Fab analyte, Human HtrA1-PD (N=2)
[12] = target: T2, His-tagged human HtrA1 protease domain; assay: cell-based or functional assay
[13] = target: T2, His-tagged human HtrA1 protease domain; assay: BIACORE T200 SPR; Fab analyte over huHtrA1-PD-His captured by anti-His antibody
Method: as §5

T2 sequence (Q92743 other isoform, or with tags, fused parts or gaps limits assumed): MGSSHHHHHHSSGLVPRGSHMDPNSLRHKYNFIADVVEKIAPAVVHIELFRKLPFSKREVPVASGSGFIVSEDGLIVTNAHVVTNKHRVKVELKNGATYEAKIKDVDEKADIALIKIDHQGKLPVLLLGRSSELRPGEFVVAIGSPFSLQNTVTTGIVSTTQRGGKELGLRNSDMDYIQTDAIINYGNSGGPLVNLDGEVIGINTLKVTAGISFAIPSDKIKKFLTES
purified full-length human HtrA1, sequence (Q92743 23-480): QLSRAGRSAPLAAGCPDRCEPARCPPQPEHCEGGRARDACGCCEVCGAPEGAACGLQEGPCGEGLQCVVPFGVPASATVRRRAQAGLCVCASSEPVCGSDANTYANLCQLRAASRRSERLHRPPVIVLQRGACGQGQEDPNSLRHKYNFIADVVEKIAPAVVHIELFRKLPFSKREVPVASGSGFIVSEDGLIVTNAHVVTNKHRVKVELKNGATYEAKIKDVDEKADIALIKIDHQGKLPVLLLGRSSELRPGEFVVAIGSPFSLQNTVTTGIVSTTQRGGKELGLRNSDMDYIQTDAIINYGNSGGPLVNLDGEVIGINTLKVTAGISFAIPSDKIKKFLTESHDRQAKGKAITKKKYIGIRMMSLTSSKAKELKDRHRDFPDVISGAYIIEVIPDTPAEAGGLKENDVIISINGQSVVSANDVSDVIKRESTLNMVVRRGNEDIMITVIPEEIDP

B1: anti-HtrA1 hybridoma antibody clone 19B12 (antibody, V domains shown)
VH: EVKLVESGGGLVEPGGSLKLACVASGFTFSSYIMSWVRQTPEKRLEWVAYISNGGGTTYYSDTIKGRFTISRDNAKNTLYLQMSTLKSEDTAIYFCARQNFRSDGSSMDYWGQGTAVTVSS
VL: NIVVTQSPASLAVSLGQRATISCRASESVDSYGKSFMHWYQQKPGQPPKLLIYLASKLESGVPARFSGSGSRTDFTLTIDPVEADDAATYYCQQNNEDPYTFGGGTKLEIK
notes: Murine mIgG2a, from hybridoma or recombinant from 293 cells; also called m19B12
- IC50, FRET-based blocking assay (H2-Opt cleavage) [1]: 1 nM
- IC50, FRET blocking assay, recombinant antibody from 293 cells [2]: ~1.2 nM
- IC50, FRET-based blocking assay (H2-Opt cleavage) [2]: 1.4 nM
- binding result [3]: no binding

B2: h15H6.v1 HC-A67V variant (Fab, V domains shown)
VH: EVQLVQSGAEVKKPGASVKVSCKASGYTFTDSEMHWVRQAPGQGLEWIGGVDPETDGAAYNQKFKGRVTLTADTSTSTAYLELSSLRSEDTAVYYCTRGYDYDYALDYWGQGTLVTVSS
VL: DIQMTQSPSSLSASVGDRVTITCRASSSVNFIHWYQQKPGKAPKPWISATSNLASGVPSRFSGSGSGTDFTLTISSLQPEDFATYYCQQWSSNPWTFGQGTKVEIK
notes: built as h15H6.v1
- binding result [4]: binds

B3: h15H6.v1 HC-A71R variant (Fab, V domains shown)
VH: B2 VH with V68A, A72R
VL: B2 VL
notes: built as h15H6.v1
- binding result [5]: binds
- binding result [4]: binds

B4: h15H6.v1 HC-L69I variant (Fab, V domains shown)
VH: B2 VH with V68A, L70I
VL: B2 VL
notes: built as h15H6.v1
- binding result [5]: binds
- binding result [4]: binds

B5: h15H6.v1 HC-T93A variant (Fab, V domains shown)
VH: B2 VH with V68A, T97A
VL: B2 VL
notes: built as h15H6.v1
- binding result [4]: binds

B6: h15H6.v1 LC-S49Y variant (Fab, V domains shown)
VH: B2 VH with V68A
VL: B2 VL with S48Y
notes: built as h15H6.v1
- fold reduction of binding against h15H6.v1 [5]: ~10 fold
- fold reduction of binding against h15H6.v1 [4]: ~10 fold

B7: h15H6.v1 LC-W47L variant (Fab, V domains shown)
VH: B2 VH with V68A
VL: B2 VL with W46L
notes: its VL equals the VL of h15H6.v2, which carries LC-W47L as its only light chain change
- binding result [5]: binds
- binding result [4]: binds

B8: h15H6.v2 LC-N94Q LC-P95 Fab (Fab, V domains shown)
VH: B2 VH with V68A, L70I, A72R
VL: B2 VL with W46L, N93Q
notes: Produced as Fab; also called QP
- fold reduction in binding affinity against h15H6.v2 [6]: ~2 fold
- Kd [7]: 0.52 nM
- koff [7]: 0.00029 s⁻¹
- kon [7]: 560000 M⁻¹ s⁻¹

B9: h15H6.v2 LC-N94S LC-P95 Fab (Fab, V domains shown)
VH: B2 VH with V68A, L70I, A72R
VL: B2 VL with W46L, N93S
notes: Produced as Fab; also called SP
- fold reduction in binding affinity against h15H6.v2 [6]: ~2 fold
- Kd [7]: 0.52 nM
- koff [7]: 0.00025 s⁻¹
- kon [7]: 480000 M⁻¹ s⁻¹

B10: h15H6.v2 LC-W91L Fab (Fab, V domains shown)
VH: B2 VH with V68A, L70I, A72R
VL: B2 VL with W46L, W90L
notes: Produced as Fab
- Kd [8]: 7.6 nM
- koff [8]: 0.00091 s⁻¹
- kon [8]: 120000 M⁻¹ s⁻¹
- Kd [9]: 10.7 nM
- koff [9]: 0.0016 s⁻¹
- kon [9]: 150000 M⁻¹ s⁻¹

B11: h15H6.v2 LC-W91Y Fab (Fab, V domains shown)
VH: B2 VH with V68A, L70I, A72R
VL: B2 VL with W46L, W90Y
notes: Produced as Fab
- Kd [8]: 7.1 nM
- koff [8]: 0.0017 s⁻¹
- kon [8]: 240000 M⁻¹ s⁻¹
- Kd [9]: 11.2 nM
- koff [9]: 0.0037 s⁻¹
- kon [9]: 330000 M⁻¹ s⁻¹

B12: h15H6.v2.APEG Fab (Fab, name in Kabat numbering, V domains shown)
VH: B2 VH with D56E, V68A, L70I, A72R
VL: B2 VL with W46L, N93A
notes: also called h15H6.v3; LC-N94A LC-P95 HC-D55E HC-G56
- Kd [10]: 0.546 nM
- koff [10]: 0.000172 s⁻¹
- kon [10]: 315000 M⁻¹ s⁻¹
- Kd [11]: 0.6 nM
- koff [11]: 0.00021 s⁻¹
- kon [11]: 350000 M⁻¹ s⁻¹
- IC50 FRET (H2-Opt substrate cleavage) [12]: 0.41 nM
- IC90 FRET (H2-Opt substrate cleavage) [12]: 2.77 nM
- Max inhibition (FRET H2-Opt assay) [12]: 77
- Kd [13]: 0.546 nM
- koff [13]: 0.000172 s⁻¹
- kon [13]: 315000 M⁻¹ s⁻¹
